Results taken from US20190085030A1.
Non-standard residues stand in square brackets, D forms with d. No end group written: not given here.

Target: A-beta1-42 (UniProt P05067)
Experiment: iodixanol density gradient centrifugation of A-beta1-42 with FITC-labelled peptide; dye in fraction 12

Chain of A-beta1-42 (P05067 672-713 limits assumed): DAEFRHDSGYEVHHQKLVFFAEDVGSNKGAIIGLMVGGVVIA

| Peptide bound in fraction 12 [%] | Binder |
| --- | --- |
| 20 | [dP][dT][dL][dH][dT][dH][dN][dR][dR][dR][dR][dR] (also: FITC label, site not given here) [RD2 (rational D3) (SEQ ID NO: 2)] |
| 4 | [dR][dR][dP][dT][dL][dR][dH][dT][dH][dN][dR][dR] (also: FITC label, site not given here) [RD3 (rational D3) (SEQ ID NO: 4)] |

The next lines start with the binder.

| Binder | Peptide bound in fraction 12 [%] |
| --- | --- |
| [dR][dP][dR][dT][dR][dL][dH][dT][dH][dR][dN][dR] (also: FITC label, site not given here) [D3 (SEQ ID NO: 11)] | 4 |
| [dR][dP][dR][dT][dR][dL][dR][dN][dR] (also: FITC label, site not given here) [D3Δhth (D3 with deletion hth) (SEQ ID NO: 1)] | 2 |
| [dR][dP][dR][dT][dR][dL] [NT-D3 (D3-N-Terminus) (SEQ ID NO: 6)] | 0 |
